From US20240285753A1 (DUKE UNIVERSITY, published 2024)

Legend:
[1] = target: T1, S2hlx-Ex2; test: ELISA, coated antigen, mAb titrated
T1 construct: backbone grafting design
T1 chain: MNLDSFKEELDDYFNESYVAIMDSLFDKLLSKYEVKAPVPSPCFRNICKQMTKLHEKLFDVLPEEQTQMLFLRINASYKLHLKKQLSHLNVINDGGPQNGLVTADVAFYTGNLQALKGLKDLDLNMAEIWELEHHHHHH

[2] = target: T2, S2hlx-Ex4; test: ELISA, coated antigen, mAb titrated
T2 construct: backbone grafting design
T2 chain: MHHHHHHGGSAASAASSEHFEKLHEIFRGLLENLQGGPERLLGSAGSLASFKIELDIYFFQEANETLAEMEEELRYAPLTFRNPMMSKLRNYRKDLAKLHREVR

[3] = target: T3, S2hlx-Ex3; test: ELISA, coated antigen, mAb titrated
T3 construct: backbone grafting design
T3 chain: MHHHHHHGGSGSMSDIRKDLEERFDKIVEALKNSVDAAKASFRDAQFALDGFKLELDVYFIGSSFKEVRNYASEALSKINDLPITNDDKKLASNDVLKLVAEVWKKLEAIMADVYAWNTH

[4] = target: T4, S2hlx-Ex17; test: SPR, mAb captured, antigen as analyte
T4 chain: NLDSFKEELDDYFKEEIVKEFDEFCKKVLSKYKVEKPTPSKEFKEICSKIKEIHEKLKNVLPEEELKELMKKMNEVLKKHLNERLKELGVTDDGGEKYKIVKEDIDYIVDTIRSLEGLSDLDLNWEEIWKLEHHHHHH

[5] = target: T5, S2hlx-Ex15; test: SPR, mAb captured, antigen as analyte
T5 chain: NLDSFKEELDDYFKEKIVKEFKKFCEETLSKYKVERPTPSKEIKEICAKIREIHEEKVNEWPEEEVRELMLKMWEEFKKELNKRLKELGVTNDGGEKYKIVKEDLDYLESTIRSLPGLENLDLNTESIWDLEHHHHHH

[6] = target: S2hlx-Ex8-Trx F1148A; test: ELISA; antigen coated, mAb titrated
[7] = target: T6, S2hlx-Ex34; test: ELISA; antigen coated, mAb titrated
T6 chain: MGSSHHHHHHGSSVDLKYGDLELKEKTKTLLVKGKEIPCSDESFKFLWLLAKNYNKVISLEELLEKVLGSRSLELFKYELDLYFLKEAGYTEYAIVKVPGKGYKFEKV

[8] = target: T7, S2hlx-Ex34 F1148A; test: ELISA; antigen coated, mAb titrated
T7 epitope scaffold: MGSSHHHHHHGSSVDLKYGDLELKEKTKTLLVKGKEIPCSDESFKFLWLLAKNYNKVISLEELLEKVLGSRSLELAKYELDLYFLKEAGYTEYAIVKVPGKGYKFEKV

[9] = target: T8, S2hlx-Ex34 L1145A; test: ELISA; antigen coated, mAb titrated
T8 epitope scaffold: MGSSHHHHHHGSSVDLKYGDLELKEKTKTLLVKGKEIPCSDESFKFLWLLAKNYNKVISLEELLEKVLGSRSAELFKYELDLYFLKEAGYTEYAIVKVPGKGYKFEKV

[10] = target: S2hlx-4; test: SPR, mAb captured, antigen as analyte
S2hlx-4, sequence (chain, as listed by the source): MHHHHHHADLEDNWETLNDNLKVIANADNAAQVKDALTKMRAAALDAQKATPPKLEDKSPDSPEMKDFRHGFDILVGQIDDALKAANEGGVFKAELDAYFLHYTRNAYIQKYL

[11] = target: HKU-1 spike (2P) (human coronavirus HKU1); test: ELISA, coated spike, mAb titrated
[12] = target: T6, S2hlx-Ex34; test: SPR, mAb captured, antigen as analyte
[13] = target: T9, S2hlx-Ex8-Trx; test: SPR, mAb captured, antigen as analyte
T9 chain: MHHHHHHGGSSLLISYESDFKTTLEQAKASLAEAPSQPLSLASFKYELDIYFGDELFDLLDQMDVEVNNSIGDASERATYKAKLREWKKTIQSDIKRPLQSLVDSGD

[14] = target: T10, S2hlx-15; test: ELISA, coated antigen, mAb titrated
T10 chain: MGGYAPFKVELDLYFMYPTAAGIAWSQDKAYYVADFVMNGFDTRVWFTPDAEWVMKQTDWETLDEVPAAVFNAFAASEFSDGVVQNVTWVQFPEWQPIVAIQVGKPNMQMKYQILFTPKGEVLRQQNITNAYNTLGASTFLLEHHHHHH

[15] = target: CC19 LA; test: ELISA, coated antigen, mAb titrated

B1: S2P6 mAb (antibody, V domains shown)
VH: EVQLVQSGAEVKKPGASVKVSCKASGYTFTSQYMHWVRQAPGQGLEWIGIINPSGVHTSYAQKFQGRVTLTRDTSTSTLYMELSSLRSEDTAVYYCARGSPKGAFDYWGQGTLVTVSS
VL: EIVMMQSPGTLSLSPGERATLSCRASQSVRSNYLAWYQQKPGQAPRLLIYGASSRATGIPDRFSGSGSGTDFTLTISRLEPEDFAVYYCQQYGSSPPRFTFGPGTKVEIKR
EC50 (read off the curve) [1]: ~0.07 µg/mL | EC50 (read off the curve) [2]: ~0.07 µg/mL | EC50 (read off the curve) [3]: ~0.06 µg/mL | Kd [4]: 29.6 nM | Kd [5]: 4 nM | EC50 (read off the curve) [6]: ~0.04 µg/mL | EC50 (read off the curve) [7]: ~0.02 µg/mL | EC50 (read off the curve) [8]: ~0.09 µg/mL | EC50 (read off the curve) [9]: ~0.02 µg/mL | Kd [10]: 47.7 nM | EC50 (read off the curve) [11]: ~0.3 µg/mL | Kd [12]: 143 nM | Kd [13]: 568 nM | EC50 (read off the curve) [14]: ~0.1 µg/mL | EC50 (read off the curve) [15]: ~0.02 µg/mL
